Several values for one entry are separate records, joined by “and”; a condition that tells them apart may be missing. Equal values may be shown once.

Broadly, the stoichiometry N is the number of molecules, sites or subunits per partner or assembly.

This series deals with the molecule itself. The experiment in a line: cross-linking.

B1: Anion exchanger 1 (AE1) (natural protein, human (endogenous in erythrocytes), UniProt P02730 1-911, looked up)
chain: MEELQDDYEDMMEENLEQEEYEDPDIPESQMEEPAAHDTEATATDYHTTSHPGTHKVYVELQELVMDEKNQELRWMEAARWVQLEENLGENGAWGRPHLSHLTFWSLLELRRVFTKGTVLLDLQETSLAGVANQLLDRFIFEDQIRPQDREELLRALLLKHSHAGELEALGGVKPAVLTRSGDPSQPLLPQHSSLETQLFCEQGDGGTEGHSPSGILEKIPPDSEATLVLVGRADFLEQPVLGFVRLQEAAELEAVELPVPIRFLFVLLGPEAPHIDYTQLGRAAATLMSERVFRIDAYMAQSRGELLHSLEGFLDCSLVLPPTDAPSEQALLSLVPVQRELLRRRYQSSPAKPDSSFYKGLDLNGGPDDPLQQTGQLFGGLVRDIRRRYPYYLSDITDAFSPQVLAAVIFIYFAALSPAITFGGLLGEKTRNQMGVSELLISTAVQGILFALLGAQPLLVVGFSGPLLVFEEAFFSFCETNGLEYIVGRVWIGFWLILLVVLVVAFEGSFLVRFISRYTQEIFSFLISLIFIYETFSKLIKIFQDHPLQKTYNYNVLMVPKPQGPLPNTALLSLVLMAGTFFFAMMLRKFKNSSYFPGKLRRVIGDFGVPISILIMVLVDFFIQDTYTQKLSVPDGFKVSNSSARGWVIHPLGLRSEFPIWMMFASALPALLVFILIFLESQITTLIVSKPERKMVKGSGFHLDLLLVVGMGGVAALFGMPWLSATTVRSVTHANALTVMGKASTPGAAAQIQEVKEQRISGLLVAVLVGLSILMEPILSRIPLAVLFGIFLYMGVTSLSGIQLFDRILLLFKPPKYHPDVPYVKRVKTWRMHLFTGIQIICLAVLWVVKSTPASLALPFVLILTVPLRRVLLPLIFRNVELQCLDADDAKATFDEEEGRDEYDEVAMPV
modifications: extensive and variable glycosylation (sites not given)
With B1, the “stoichiometry N” value is 2 and 4.

The record behind these values is paper PMC5214978 (Structure (London, England : 1993), 2016).
